Results: patent publication US20200164038A1, “MODIFIED NUCLEOSIDE, NUCLEOTIDE, AND NUCLEIC ACID COMPOSITIONS” (ModernaTX, Inc., priority 2011, published 2020)

B1: G-CSF Gen 2: G-CSF mRNA SEQ ID NO 6, Cap1, fully modified with 5-methylcytosine and N1-methylpseudouridine (nucleic acid, listed as Homo sapiens)
chain: GGGAAAUAAGAGAGAAAAGAAGAGUAAGAAGAAAUAUAAGAGCCACCAUGGCCGGUCCCGCGACCCAAAGCCCCAUGAAACUUAUGGCCCUGCAGUUGCUGCUUUGGCACUCGGCCCUCUGGACAGUCCAAGAAGCGACUCCUCUCGGACCUGCCUCAUCGUUGCCGCAGUCAUUCCUUUUGAAGUGUCUGGAGCAGGUGCGAAAGAUUCAGGGCGAUGGAGCCGCACUCCAAGAGAAGCUCUGCGCGACAUACAAACUUUGCCAUCCCGAGGAGCUCGUACUGCUCGGGCACAGCUUGGGGAUUCCCUGGGCUCCUCUCUCGUCCUGUCCGUCGCAGGCUUUGCAGUUGGCAGGGUGCCUUUCCCAGCUCCACUCCGGUUUGUUCUUGUAUCAGGGACUGCUGCAAGCCCUUGAGGGAAUCUCGCCAGAAUUGGGCCCGACGCUGGACACGUUGCAGCUCGACGUGGCGGAUUUCGCAACAACCAUCUGGCAGCAGAUGGAGGAACUGGGGAUGGCACCCGCGCUGCAGCCCACGCAGGGGGCAAUGCCGGCCUUUGCGUCCGCGUUUCAGCGCAGGGCGGGUGGAGUCCUCGUAGCGAGCCACCUUCAAUCAUUUUUGGAAGUCUCGUACCGGGUGCUGAGACAUCUUGCGCAGCCGUGAAGCGCUGCCUUCUGCGGGGCUUGCCUUCUGGCCAUGCCCUUCUUCUCUCCCUUGCACCUGUACCUCUUGGUCUUUGAAUAAAGCCUGAGUAGGAAG
modifications: Cap1; 5-methylcytosine, N1-methylpseudouridine
B2: G-CSF Gen 1: G-CSF mRNA SEQ ID NO 6, Cap1, fully modified with 5-methylcytosine and pseudouridine (nucleic acid, listed as Homo sapiens)
chain: GGGAAAUAAGAGAGAAAAGAAGAGUAAGAAGAAAUAUAAGAGCCACCAUGGCCGGUCCCGCGACCCAAAGCCCCAUGAAACUUAUGGCCCUGCAGUUGCUGCUUUGGCACUCGGCCCUCUGGACAGUCCAAGAAGCGACUCCUCUCGGACCUGCCUCAUCGUUGCCGCAGUCAUUCCUUUUGAAGUGUCUGGAGCAGGUGCGAAAGAUUCAGGGCGAUGGAGCCGCACUCCAAGAGAAGCUCUGCGCGACAUACAAACUUUGCCAUCCCGAGGAGCUCGUACUGCUCGGGCACAGCUUGGGGAUUCCCUGGGCUCCUCUCUCGUCCUGUCCGUCGCAGGCUUUGCAGUUGGCAGGGUGCCUUUCCCAGCUCCACUCCGGUUUGUUCUUGUAUCAGGGACUGCUGCAAGCCCUUGAGGGAAUCUCGCCAGAAUUGGGCCCGACGCUGGACACGUUGCAGCUCGACGUGGCGGAUUUCGCAACAACCAUCUGGCAGCAGAUGGAGGAACUGGGGAUGGCACCCGCGCUGCAGCCCACGCAGGGGGCAAUGCCGGCCUUUGCGUCCGCGUUUCAGCGCAGGGCGGGUGGAGUCCUCGUAGCGAGCCACCUUCAAUCAUUUUUGGAAGUCUCGUACCGGGUGCUGAGACAUCUUGCGCAGCCGUGAAGCGCUGCCUUCUGCGGGGCUUGCCUUCUGGCCAUGCCCUUCUUCUCUCCCUUGCACCUGUACCUCUUGGUCUUUGAAUAAAGCCUGAGUAGGAAG
modifications: Cap1; 5-methylcytosine, pseudouridine

Assays:
[1] = tested on: Human primary foreskin fibroblasts (BJ fibroblasts); test: Innate immune response in BJ fibroblasts, repeat transfection (IFN-beta, IL-6); format: cell-based; conditions: daily transfection, Day 1
Female BALB/C mice = test: In vivo detection of innate immune response: human G-CSF and mouse IFN-alpha in serum; conditions: Protein: Cytokine Ratio
Method: Blood is collected at 8 hours after dosing and using ELISA the protein levels of G-CSF and interferon-alpha (IFN-alpha) is determined by ELISA and are shown in Table 81.

mice = test: Saline formulation: human protein in mouse serum 13 hours after injection; format: in vivo; conditions: G-CSF group, 100 ug
Method: The mice were bled at 13 hours after the injection to determine the concentration of the human polypeptide in serum in pg/mL. (G-CSF groups measured human G-CSF in mouse serum and EPO groups measured human EPO in mouse serum).

[2] = Stability of modified RNA on storage (gel electrophoresis); format: physicochemical
Method: Stability experiments were conducted to obtain a better understanding of storage conditions to retain the integrity of modified RNA. […] 40° C. 37° C. 25° C. 4° C. or −20° C. After the mRNA had been stored for 0 hours, 2 hours, 6 hours, 24 hours, 48 hours, 5 days and 14 days, the mRNA was analyzed by gel electrophoresis using a Bio-Rad EXPERION™ system. The modified, unmodified and lipoplexed G-CSF mRNA was also stored in RNASTABLE® (Biomatrica, Inc. San Diego, Calif.) at 40° C. or water at −80° C. or 40° C. for 35 days before being analyzed by gel electrophoresis.
mRNA samples stored at 4° C. 25° C. and 37° C. were stored in 1×TE buffer or the formulation buffer (150 mM sodium chloride, 2 mM calcium chloride, 2 mM phosphate, 0.5 mM EDTA at a pH of 6.5). The mRNA stored at 4° C. was stable to at least 60 days in both the TE and formulation buffer. At 25° C. the mRNA in formulation buffer was stable out to 14 days and the TE buffer was stable out to at least 6 days. Storage of mRNA in the formulation buffer at 37° C. was stable to 6 days compared to the TE buffer which was stable only until 4 days.

| Molecule | IFNbeta [1] [pg/mL] | PC Ratio (Female BALB/C mice) | Average Protein Product, human G-CSF (mice) | stable out to ([2]; stored at 25° C., with or without lipoplex) [h] | stable out to ([2]; stored at 37° C.) [h] | stable out to ([2]; stored at 50° C.) [h] |
| --- | --- | --- | --- | --- | --- | --- |
| B1 | 3 | 748 |  |  |  |  |
| B2 |  |  | 45 pg/mL, serum | 120 | 24 | 6 |
